Laboratory results taken from the supplement of paper PMC9732359.
± gives the uncertainty stated by the source.

Assay: protein stability index of a GFP-peptide fusion (yeast GPS) (PSI 1-4); higher = more stable; sorted into four equal gates, so the index is relative within each strain
In short: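 Mid-log yeast cultures in leucine-free medium, carrying a pooled plasmid library, were sorted into four equal gates by their GFP/Cherry fluorescence ratio. Each plasmid expressed Cherry along with GFP fused upstream of a tiled 17-residue yeast protein peptide. Plasmids recovered from each gate were PCR-amplified and Illumina-sequenced, with reads assigned to strains by barcodes. The protein stability index was obtained by summing each gate's read frequency weighted by its gate number.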

| Sequence | protein stability index (doa10∆) | protein stability index (san1∆) | protein stability index (ubr1∆) | protein stability index (pdr5∆) |
| --- | --- | --- | --- | --- |
| ARGMTSKPAGFMKKLRA [RPS15] | 3.15 ± 0.16 | 2.64 ± 0.26 | 3.6 ± 0.14 | – |
| ARIIRSELLARDIFQED [RGR1] | 2.26 ± 0.11 | 2.14 ± 0.12 | 2.19 ± 0.096 | 2.4 ± 0.087 |
| ARLAILKERAKNISSQL [YGR119C/NUP57] | 2.24 ± 0.079 | 2.51 ± 0.072 | 2.51 ± 0.052 | 2.77 ± 0.069 |
| ARQFGYVILTTSAGIMD [RPS22A] | 1.37 ± 0.048 | 1.17 ± 0.094 | 1.25 ± 0.037 | 1.33 ± 0.045 |
| ARVKAFDRHCNMVLENV [SMD2] | 1.53 ± 0.091 | 1.39 ± 0.21 | 1.87 ± 0.085 | 2.3 ± 0.087 |
| ARVLFDDMVEYEDGTPA [CYT1] | 3.47 ± 0.17 | 3.24 ± 0.085 | 3.48 ± 0.11 | 3.09 ± 0.096 |
| ASFGKNLQIRQLFNWCL [DSN1] | 1.2 ± 0.064 | 1.29 ± 0.15 | 2.33 ± 0.12 | 1.44 ± 0.051 |
| ASFNDTFVHVTDLSGKE [RPS14A] | 2.17 ± 0.097 | 1.76 ± 0.22 | 1.15 ± 0.082 | 1.36 ± 0.093 |
| ASILLALTQMDQDKVNF [RPB3] | 3.18 ± 0.11 | 3.24 ± 0.073 | 2.93 ± 0.056 | 3.28 ± 0.094 |
| ASISLPNHIPSVNPSNK [SWP82] | 2.99 ± 0.1 | 3.01 ± 0.075 | 3.12 ± 0.054 | 3.05 ± 0.069 |
| ASKGIDRLSLQDRQQLL [ECM29] | 3.08 ± 0.083 | 3.19 ± 0.085 | 3.21 ± 0.056 | 3.11 ± 0.07 |
| ASKKSGGDVVKFQKLLQ [SMC4] | 3.42 ± 0.15 | 3.19 ± 0.13 | 3.4 ± 0.17 | 3.64 ± 0.12 |
| ASKTNLRLTDVTNSLSN [GAL11] | 3.15 ± 0.072 | 2.96 ± 0.051 | 3.28 ± 0.064 | 3.38 ± 0.067 |
| ASLDGTIRLWECGTGTT [RPN14] | 2.8 ± 0.093 | 3.19 ± 0.069 | 2.78 ± 0.12 | 2.91 ± 0.13 |
| ASLGIGLAAMGSANIEV [RPN2] | 1.65 ± 0.088 | 1.74 ± 0.091 | 1.53 ± 0.067 | 1.76 ± 0.079 |
| ASSAAAGAAGAAAGGDA [RPP2B] | 2.87 ± 0.11 | 3.21 ± 0.071 | 2.87 ± 0.095 | 3.02 ± 0.084 |
| ASSGPRYIVGVRNSVDR [RPT4] | 1.29 ± 0.12 | – | 1.37 ± 0.092 | 1.42 ± 0.19 |
| ASTPSIRPDGRLPHQFR [RRP42] | 2.9 ± 0.14 | 2.81 ± 0.19 | 2.99 ± 0.089 | 3.21 ± 0.12 |
| ASTVAKTAPIQESFVPN [YOR098C/NUP1] | 2.97 ± 0.16 | 2.94 ± 0.3 | 3.21 ± 0.061 | 2.83 ± 0.11 |
| ASVTKEILGTAQSVGCR [RPL12A] | 1.35 ± 0.087 | 1.35 ± 0.082 | 1.61 ± 0.082 | 1.51 ± 0.044 |
| ATADTTHLHEALDIVCS [NUT1] | 2.12 ± 0.056 | 2.48 ± 0.12 | 2.69 ± 0.041 | 2.55 ± 0.063 |
| ATNANATTDQEGDIHLE [PRE10] | 3.35 ± 0.23 | 3.33 ± 0.036 | 3.11 ± 0.12 | 3.39 ± 0.14 |
| ATNRVDVLDPALLRSGR [RPT5] | 3.13 ± 0.12 | 3.04 ± 0.085 | 2.94 ± 0.075 | 2.84 ± 0.11 |
| ATPFRQWFEAHYGQTLG [RPS8A] | 2.436 ± 0.022 | 2.7 ± 0.021 | 2.573 ± 0.019 | 2.787 ± 0.024 |
| ATPSAKEASQEDDNNNV [YLR335W/NUP2] | 2.57 ± 0.058 | 2.76 ± 0.051 | 2.73 ± 0.05 | 2.62 ± 0.056 |
| ATQKESLEMVPKDTSAA [RGR1] | 3.25 ± 0.087 | 3.09 ± 0.055 | 3.17 ± 0.05 | 3.25 ± 0.07 |
| ATRTLVASIQNDPSAEV [YCG1] | – | 2.79 ± 0.27 | – | 3.41 ± 0.16 |
